Laboratory results taken from US20030157712A1, “Methods for determining cell responses through EphB receptors” (priority 1997, published 2003).

Tests used:
EphB1 = molecular target: T1, EphB1 (Homo sapiens, UniProt P54762); experiment: EphB1 immunoprecipitation and phosphotyrosine immunoblot; type: cell-based; settings: endothelial cells on adsorbed ligand
T1 construct: Ligand stimulation and immunoprecipitation of endogenous EphB receptors; endogenous in cells; host or cells: HRMEC (human); P19 (murine teratocarcinoma) in part of the results
T1 sequence (P54762 18-984): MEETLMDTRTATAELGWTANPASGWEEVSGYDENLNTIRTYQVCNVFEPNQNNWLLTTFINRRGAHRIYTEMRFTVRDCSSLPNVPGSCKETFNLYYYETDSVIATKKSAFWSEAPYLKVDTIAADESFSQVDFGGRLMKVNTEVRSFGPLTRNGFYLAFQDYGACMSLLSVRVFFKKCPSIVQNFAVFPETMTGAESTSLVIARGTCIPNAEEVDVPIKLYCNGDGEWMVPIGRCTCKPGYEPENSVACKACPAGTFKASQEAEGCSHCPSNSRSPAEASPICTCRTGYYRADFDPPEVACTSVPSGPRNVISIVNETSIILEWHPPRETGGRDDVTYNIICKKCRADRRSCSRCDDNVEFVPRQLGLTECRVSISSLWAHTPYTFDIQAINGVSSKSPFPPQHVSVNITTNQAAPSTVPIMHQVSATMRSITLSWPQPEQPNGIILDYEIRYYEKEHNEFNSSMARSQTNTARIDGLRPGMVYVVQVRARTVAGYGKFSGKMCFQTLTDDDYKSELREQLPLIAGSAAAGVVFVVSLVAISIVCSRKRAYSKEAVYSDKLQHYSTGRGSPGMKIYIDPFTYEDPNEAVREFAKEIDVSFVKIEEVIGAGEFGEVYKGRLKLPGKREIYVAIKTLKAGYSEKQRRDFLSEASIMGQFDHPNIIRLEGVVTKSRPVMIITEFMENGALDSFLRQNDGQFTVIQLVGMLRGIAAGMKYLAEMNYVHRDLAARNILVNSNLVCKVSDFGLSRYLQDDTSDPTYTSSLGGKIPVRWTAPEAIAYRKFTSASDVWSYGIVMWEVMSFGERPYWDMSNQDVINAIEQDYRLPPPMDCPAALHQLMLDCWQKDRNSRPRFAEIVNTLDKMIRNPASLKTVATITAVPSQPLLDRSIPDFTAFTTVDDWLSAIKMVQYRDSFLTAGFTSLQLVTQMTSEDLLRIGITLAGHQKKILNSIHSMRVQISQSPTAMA

HRMEC = experiment: Cell adhesion assay (HRMEC); type: cell-based, human; settings: 90 min after plating
Description: (§1) Cell adhesion assay. Six well plates (Falcon) were coated with thin layers of Matrigel or with 0.5 μg cm^2 fibronectin (29). Growth medium was replaced 48 h before harvest with binding medium, either DMEM (HRMEC) or ∝-MEM (P19) containing 1% bovine albumin. Cells were recovered by trypsinization (HRMEC) or vigorous tituration (P19) and washed three times with binding medium and plated at 1×10^5 cells per well. Ligands were added coincident with plating at concentrations indicated above. After 90 min, unattached cells were dislodged by applying 4 brisk slaps of the plate on a horizontal surface, and the attached cell layer was carefully washed once with PBS containing calcium and magnesium to collect the remaining unattached cells. Attached cells were collected after incubation in Dispase (Collaborative Biomedical Products). Separate fractions were recovered by centrifugation, washed once and trypan blue excluding cells counted visually using a hemocytomer. The ratio of attached to total number of cells recovered were calculated for each of three wells. Data are expressed as mean+/−SEM and are representative of three independent experiments.

P19 cells [1] = experiment: Cell adhesion assay (P19); type: cell-based, murine; settings: fibronectin coated dishes, 90 min
Description: as §1

[2] = tested on: LMW-PTP recruitment to EphB1 and EphB2 complexes; experiment: LMW-PTP recruitment to EphB1 and EphB2 complexes (co-immunoprecipitation, immunoblot); type: cell-based, human
Description: (§2) Ligand stimulation and immunoprecipitation of endogenous EphB receptors. Primary HRMEC were used at passages 3-6, as described (12). P19 cells were cultured as recommended (ATCC, Rockville, Md.). Ninety min prior to ligand stimulation, cells (2×10^5cells/60 mm dish) were plated on Matrigel-(Collaborative Biomedical Products, Becton Dickinson, Bedford, Mass., as recommended) or fibronectin-coated (29) dishes. Ligand (ephrin-B1/Fc) or control (ORF/Fc) (30) multimers were generated by preincubation with anti-Fc at a fixed ratio of 0.1× the indicated concentrations of Fc fusion proteins [50 ng ml^−1 anti-Fc for 500 ng ml^−1 Fc fusion protein]. If not otherwise indicated, Fc fusion proteins (ephrinB1/Fc or ORF/Fc) were used at 500 ng ml^−1 in the absence or presence of preclustering anti-Fc at 50 ng ml^−1. Cells were incubated with agonists at 37° C. for 10 min, or as described in the figure legends. […] Precipitated proteins were analyzed by immunoblot (15).
(§3) It was reasoned that alternative signaling responses mediated through EphB receptors might reflect differential association of additional receptor signaling complex components. […] Accordingly, EphB1 immunoprecipitates were analyzed for LMW-PTP immunoreactivity (11,17).

[3] = tested on: Grb2 and Grb10 and Nck recruitment to EphB1 complexes; experiment: Recruitment of SH2-containing adapter proteins to EphB1 complexes; type: cell-based
Description: as §2, §3

P19 cells [4] = experiment: P19 attachment to nitrocellulose coated surfaces preadsorbed with ligand and fibronectin; type: cell-based, murine; settings: 500 ng/well ligand with fibronectin 500 ng/well on nitrocellulose, 90 min at 37° C.
Description: Specifically, nitrocellulose coated surfaces were preadsorbed with 500 ng/well of non-denatured ephrin-B1/Fc, either as dimer (LERK-2/Fc) or preclustered multimer (LERK2/FC+anti-Fc) or control protein (anti-Fc, BSA), with fibronectin (500 ng/well). P19 cells were plated and the % attached cells were assayed after a 90 min incubation at 37° C.

B1: ephrin-B1/Fc dimers: disulfide-linked immunoglobulin Fc fusion form of ephrin-B1 (protein)
chain: LAKNLEPVSWSSLNPKFLSGKGLVIYPKIGDKLDIICPRAEAGRPYEYYKLYLVRPEQAAACSTVLDPNVLVTCNRPEQEIRFTIKFQEFSPNYMGLEFKKHHDYYITSTSNGSLEGLENREGGVCRTRTMKIIMKVGQDPNAVTPEQLTTSRPSKEADNTVKMATQAPGSRGSLGDSDGKHETVNQEEKSGPGASGGSSGDPDGFFNSK
modifications: left off: a dimerising Fc or GST
- EphB1 receptor activation at densities greater than 300 ng/cm^2 (EphB1): did not show a decrement
- adsorption densities stimulating EphB1 receptor activation (EphB1; phosphotyrosine immunoblot): greater than 100 ng/cm^2
- HRMEC attachment to Matrigel- and fibronectin-coated surfaces (HRMEC): did not
- P19 attachment to fibronectin (P19 cells [1]): modest effect to decrease
- recruitment of 18 kDa tyrosine phosphoprotein (LMW-PTP) to EphB1 and EphB2 immunoprecipitates [2]: not
- recruitment of Grb2, Grb10 and Nck to EphB1 complexes, dimeric vs multimeric ligand [3]: did not differ
- attachment of cells in preadsorbed wells (P19 cells [4]): approximately 40%
